Read-outs that look alike come from different tables or passages of the source.
Tests used:
GPCR135 [1] = target: T1, GPCR135 (Homo sapiens, UniProt Q9NSD7); assay: Ca2+ mobilization assay, 293 cells co-expressing GPCR135 and Gqi5; format: cell-based
T1 sequence (Q9NSD7 1-469): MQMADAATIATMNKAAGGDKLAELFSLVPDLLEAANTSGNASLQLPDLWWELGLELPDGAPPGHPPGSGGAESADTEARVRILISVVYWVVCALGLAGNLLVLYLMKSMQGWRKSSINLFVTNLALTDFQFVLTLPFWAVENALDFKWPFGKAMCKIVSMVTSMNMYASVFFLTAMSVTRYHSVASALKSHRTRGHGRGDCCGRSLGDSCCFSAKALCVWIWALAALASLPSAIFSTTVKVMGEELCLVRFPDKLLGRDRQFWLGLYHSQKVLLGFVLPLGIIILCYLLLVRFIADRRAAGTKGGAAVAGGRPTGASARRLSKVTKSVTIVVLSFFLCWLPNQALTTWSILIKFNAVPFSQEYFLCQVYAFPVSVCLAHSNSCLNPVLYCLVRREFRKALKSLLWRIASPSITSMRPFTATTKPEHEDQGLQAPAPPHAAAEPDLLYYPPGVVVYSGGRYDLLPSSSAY
Procedure: (§1) Human embryonic kidney (HEK) 293 cells were transfected with GPCR135,.GPCR142 or co-transfected with Gqi5 (Conklin et al. (1993), Nature 363, 274-280) or Gα16 (Amatruda et al. (1991), Proc. Natl. Acad. Sci. U.S.A. 88, 5587-5591) expressing plasmids using LipofectAmine. Two days after transfection, cells were detached with PBS plus 10 mM EDTA. The detached cells were washed with DMEM-F12 medium (without phenol red, Invitrogen) and seeded in black poly-D lysine coated 96-well plates (BD Biosciences, San Jose, Calif.) at a cell density of 50,000 cell/well.

[2] = test system: HEK293 cells transfected by Gα16 alone; assay: Ca2+ mobilization assay, HEK293 cells transfected by Gα16 alone; format: cell-based, human; details: cells expressing Gα16 alone (no receptor)
Procedure: as §1

GPCR135 [3] = target: T1, GPCR135; assay: Inhibition of forskolin-stimulated cAMP (CRE-β-galactosidase) in SK-N-MC cells; format: cell-based; design: expressed in transfected cells; details: SK-N-MC cells stably expressing GPCR135
Procedure: (§2) SK-N-MC cells stably expressing GPCR142 were established by transfection of GPCR142 expressing plasmids into SK-N-MC cells harboring a β-galactosidase gene under control of multiple cAMP responsive elements. The stable transfectants were selected by culturing the transfected cells under G418 selection (400 mg/L). The receptor expressing cells were seeded in 96-well plates at a cell density of 30,000 cells/well. After 24 h, cells were stimulated with forskolin or different peptides. Cells were cultured for an additional 6 h and the intracellular β-gal activity, which represents the intracellular cAMP accumulation, was measured as described by Liu et al. (2000), Mol. Pharmacol., 59, 420-426.
The same experiment was performed using GPCR135.

GPCR135 [4] = target: T1, GPCR135; assay: Ca2+ mobilization assay, HEK293 cells co-expressing GPCR135 and Gα16; format: cell-based; design: expressed in transfected cells; host or cells: HEK293 with Gα16 or Gqi5 (Ca2+)
GPCR142 [5] = target: T2, GPCR142 (Homo sapiens, UniProt Q8TDU9, L329S); assay: Radioligand binding assay with 125I-relaxin3 (saturation and competition), COS-7 cell membranes; design: The complete coding region of human GPCR142 was PCR-amplified from human genomic DNA; expressed in transfected cells; details: competition binding, COS-7 membranes; listed as unlabeled relaxin3
T2 sequence (Q8TDU9 whole entry L329S): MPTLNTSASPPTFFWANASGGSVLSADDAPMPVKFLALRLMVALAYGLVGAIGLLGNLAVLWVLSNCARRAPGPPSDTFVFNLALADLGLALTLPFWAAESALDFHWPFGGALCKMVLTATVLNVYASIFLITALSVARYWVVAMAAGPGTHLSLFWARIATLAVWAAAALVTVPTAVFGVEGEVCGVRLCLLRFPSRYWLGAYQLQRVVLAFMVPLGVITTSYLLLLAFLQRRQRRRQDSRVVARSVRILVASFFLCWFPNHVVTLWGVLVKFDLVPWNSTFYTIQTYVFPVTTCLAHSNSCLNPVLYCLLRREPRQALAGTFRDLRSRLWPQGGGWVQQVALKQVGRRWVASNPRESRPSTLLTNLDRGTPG
Procedure: The binding mixtures were incubated at room temperature for 1 h and then were filtered through 96-well GFC plates (Packard) and washed with ice-cold washing buffer: 50 mM Tris-HCl, pH 7.4. Fifty microliters of Microscint-40 were added to each well and the plates were counted in a Topcounter NTX (Packard). The radioligand binding results were analyzed using GraphPad PRISM software.
The binding assays were performed at room temperature for an incubation time of one hour. The binding mixtures were then filtered through GFC filters pre-saturated with 0.3 polyethylenimine (Sigma) and washed with cold binding buffer. The bound radioligand was counted in a top counter (TopCount/NTX, Packard) with Microscint-40. The results were analyzed by Prism 3.0 software.

GPCR142 [6] = target: T2, GPCR142; assay: Inhibition of forskolin-stimulated cAMP (CRE-β-galactosidase) in SK-N-MC cells; format: cell-based; design: The complete coding region of human GPCR142 was PCR-amplified from human genomic DNA; expressed in transfected cells; HEK293 co-transfected with Gqi5 (Ca2+); details: SK-N-MC cells stably expressing GPCR142
Procedure: as §2

GPCR142 [7] = target: T2, GPCR142; assay: GTPγS binding assay, GPCR142 expressing cell membranes; format: biochemical; design: The complete coding region of human GPCR142 was PCR-amplified from human genomic DNA; expressed in transfected cells; CHO membranes (GTPγS); HEK293 co-transfected with Gα16 (Ca2+)
Procedure: The GPCR142 expression vector described above was transfected into CHO cells using Lipofectamine (Invitrogen) according to the manufacturer's instructions. Two days after transfection, the cells were harvested and the cell membranes were prepared by homogenizing the cells in cold 50 mM Tris-HCl, 5 mM EDTA, pH 7.5 followed by centrifugation at 4° C. 1000 g for 10 min. The supernatant was centrifuged at 4° C. 20,000 g for 30 min and the pellet was re-suspended in GTPγS binding buffer: 50 mM Tris-HCl, pH 7.4, 10 mM MgCl2, 1 mM EDTA, pH 8.0, and 100 mM NaCl using a polytron tissue homogenizer. Protease inhibitors were added to the buffer at concentrations of 1 mM PMSF, 10 μg/ml of pepstatin A, 10 μg/ml of leupeptin. Cell membranes and different concentrations of ligands were added to 96-well plates and incubated at room temperature for 20 min. ^35S-GTPγS (NEN) was then added to each well at a final concentration of […] in a final volume of 200 μL. The reactions were allowed to proceed at room temperature for 1 h, and then the mixtures were filtered though a 96-well GFC filter plate (Packard) and washed with cold washing buffer: 50 mM Tris-HCl, pH 7.4, 10 mM MgCl2. Fifty microliters of Microscint-40 (Packard) was added to each well and the plate was counted on a top counter (TopCount NTX, Packard).

relaxin3: Human relaxin3 (SEQ ID NO: 6), produced recombinantly; mature peptide of A- and B-chain linked by disulfide bridges
stimulation of Ca2+ mobilization (GPCR135 [1]): stimulates Ca^2+ mobilization | stimulation of Ca2+ mobilization [2]: did not respond | inhibition of forskolin induced β-galactosidase expression (GPCR135 [3]): dose-dependently inhibits | stimulation of Ca2+ mobilization (GPCR135 [4]): stimulated Ca2+ mobilization | stimulation of Ca2+ mobilization (GPCR135 [4]; listed as Relaxin3): stimulated Ca^2+ mobilization | displacement of 125I-relaxin3 binding to GPCR142 (GPCR142 [5]): specifically displaced | inhibition of forskolin induced β-galactosidase expression (GPCR142 [6]): dose-dependently inhibits | stimulation of 35S-GTPγS binding (agonist activity) (GPCR142 [7]): stimulate | stimulation of 35S-GTPγS binding (agonist activity) (GPCR142 [7]; listed as human recombinant relaxin3): stimulated GTPγS binding
